# Source: PMC2408619
# Columns and labels:
# [1] = biological target: Biotinylated Prn-E (pertactin residues 38-640 with N-terminal biotinylation sequence) (B. bronchiseptica) (UniProt Q03035); assay: SPR; conditions: natural protein
# [2] = biological target: Pertactin (Prn-E) ectodomain (Bordetella bronchiseptica) (UniProt Q03035); assay: ITC; conditions: cited from earlier work
# [3] = biological target: His-tagged ectodomain of B. bronchiseptica pertactin (Prn-E; residues 38-640) (B. bronchiseptica) (UniProt Q03035); assay: not stated; unpublished data; stoichiometry of Mtd-P6 with pertactin
# [4] = biological target: Biotinylated Prn-E (pertactin residues 38-640 with N-terminal biotinylation sequence) (B. bronchiseptica) (UniProt Q03035); assay: SPR; Biacore 3000, 25 °C; ~100 RU biotinylated Prn-E on a streptavidin chip; Mtd proteins injected in 150 mM NaCl, 50 mM Tris pH 8.0, 0.005% Tween 20 at 30 μl/min; single-site model, global fit, six concentrations, duplicate
# [5] = biological target: His-tagged ectodomain of B. bronchiseptica pertactin (Prn-E; residues 38-640) (B. bronchiseptica) (UniProt Q03035); assay: pull-down; varying concentrations of Mtd incubated with 80 μM His-tagged Prn-E (5 min, 25 °C) before adding Ni2+-NTA beads; apparent Kd of Mtd-M1 estimated against Mtd-P6 with the Langmuir isotherm
substance,measurement,setting,value
Bordetella bacteriophage major tropism determinant variant Mtd-P6 (from UniProt Q775D6 1-381),koff,[1],0.112 s⁻¹
Mtd-P1 (from UniProt Q775D6),Kd,[2],3.04 µM
Bordetella bacteriophage major tropism determinant variant Mtd-P6 (from UniProt Q775D6 1-381) (natural protein),stoichiometry N (Mtd-P6 protomers per pertactin),[3],3
same,Kd,[4],5.19 µM
same,kon,[4],10000 M⁻¹ s⁻¹
Bordetella bacteriophage major tropism determinant variant Mtd-M1 (from UniProt Q775D6 1-381) (natural protein),Kd,[5],500 µM
same,Kd,[4],> 450 µM
